Source: patent publication US20140335120A1

Assays:
[1] = target: PSA65-74 peptide presented by H-2Db (PSA65-74 H-2Db tetramer; EL4 cells pulsed with H-2Db peptide) (human) (UniProt P07288); assay: PSA tetramer staining of splenocytes on day 6 after the boost, flow cytometry
[2] = target: PSA65-74 peptide presented by H-2Db (PSA65-74 H-2Db tetramer; EL4 cells pulsed with H-2Db peptide) (human) (UniProt P07288)

## splenocytes (PSA-specific CD8+ T cells / CTLs) of C57BL/6 mice immunized with LmddA-LLO-PSA
[1]
  percent PSA tetramer+CD8+CD62Llow cells: 23%

## splenocytes (PSA-specific CD8+ T cells / CTLs) of C57BL/6 mice immunized with LmddA-LLO-PSA (cells without a defined receptor)
[2]
  percentage of CD8+CD62Llow IFN-γ secreting cells (intracellular cytokine staining after 5 h stimulation with PSA peptide): 200 fold
